{"source": "IntAct's records for PubMed 18571423", "target": "rbbp7_human RBBP7 (UniProt Q16576)", "sequence (Q16576 whole entry)": "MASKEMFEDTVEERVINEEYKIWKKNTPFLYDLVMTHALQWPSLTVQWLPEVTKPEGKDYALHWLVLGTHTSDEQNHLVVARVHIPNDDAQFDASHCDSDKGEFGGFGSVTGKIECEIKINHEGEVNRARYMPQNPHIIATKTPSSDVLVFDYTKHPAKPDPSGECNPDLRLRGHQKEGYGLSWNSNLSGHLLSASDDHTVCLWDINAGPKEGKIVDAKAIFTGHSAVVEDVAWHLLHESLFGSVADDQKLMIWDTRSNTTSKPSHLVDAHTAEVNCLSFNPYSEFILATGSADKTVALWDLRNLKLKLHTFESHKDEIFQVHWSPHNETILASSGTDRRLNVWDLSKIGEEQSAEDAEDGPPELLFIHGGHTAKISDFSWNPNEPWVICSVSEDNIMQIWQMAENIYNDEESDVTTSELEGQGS"}
{"substance": "Histone H4 (Homo sapiens) (from UniProt P62805) I35T;R36S;L38D", "values": [{"measurement": "effect of a mutation on the interaction", "result": "disrupting interaction"}]}
{"substance": "Histone H4 (Homo sapiens) (from UniProt P62805) L38D;R40V;R41N", "values": [{"measurement": "effect of a mutation on the interaction", "result": "disrupting interaction"}]}
{"substance": "Histone H4 (Homo sapiens) (from UniProt P62805) R40V;R41N", "values": [{"measurement": "effect of a mutation on the interaction", "result": "disrupting interaction"}]}
